Data on 3 molecules can be found in PMC6053527 (Frontiers in Plant Science, 2018).

The Km is the substrate concentration at which the rate is half of its maximum. A word on the kcat: it is the maximal rate divided by the concentration of active sites.

Series [1] concerns the target T1, SyMDH (Synechocystis sp. PCC 6803, UniProt Q55383).
T1 construct: gene mdh; full ORF in pGEX5X-1, N-terminal GST tag kept, E. coli expression, glutathione-Sepharose purification
T1 sequence (Q55383 1-324): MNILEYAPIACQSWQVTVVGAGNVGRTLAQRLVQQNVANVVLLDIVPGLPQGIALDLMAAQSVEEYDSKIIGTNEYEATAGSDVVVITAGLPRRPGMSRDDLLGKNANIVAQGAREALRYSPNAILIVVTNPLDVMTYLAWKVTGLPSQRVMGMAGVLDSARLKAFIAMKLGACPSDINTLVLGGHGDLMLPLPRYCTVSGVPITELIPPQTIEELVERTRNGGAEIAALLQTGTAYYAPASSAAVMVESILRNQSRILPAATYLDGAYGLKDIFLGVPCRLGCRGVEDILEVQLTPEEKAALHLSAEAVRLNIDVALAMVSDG
As to the kind of experiment: spectrophotometric assay at […] nm; fit to modified Michaelis-Menten equation. The note with it: substrate inhibition by NAD+; oxidative reaction, 4.0 mM malate, 100 mM potassium phosphate pH 8.0. The format is biochemical.

Series [2] concerns the target T1, SyMDH. Put plainly: spectrophotometric assay at […] nm with effector. The format is biochemical. The settings on record: read-out: % activity at 1 mM.
Substrate in series [3]: O=C(O)C[C@H](O)C(=O)O
As to the kind of experiment: purified protein. The settings on record: oxidative reaction, 8.0 mM NAD+, 100 mM potassium phosphate pH 8.0.

Substrate in series [4]: NC(=O)c1ccc[n+]([C@@H]2O[C@H](COP(=O)(O)OP(=O)(O)OC[C@H]3O[C@@H](n4cnc5c(N)ncnc54)[C@H](O)[C@@H]3O)[C@@H](O)[C@H]2O)c1
As to the kind of experiment: purified protein. The format is biochemical, Synechocystis sp. PCC 6803. The note with it: oxidative reaction, 4.0 mM malate, 100 mM potassium phosphate pH 8.0; pH 8.0.

Substrate in series [5]: O=C(O)CC(=O)C(=O)O
Put plainly: purified protein. The format is biochemical, Synechocystis sp. PCC 6803. The settings on record: reductive reaction, 0.1 mM NADH, 100 mM potassium phosphate pH 6.5; no added effector; pH 6.5.

Substrate in series [6]: NC(=O)C1=CN([C@@H]2O[C@H](COP(=O)(O)OP(=O)(O)OC[C@H]3O[C@@H](n4cnc5c(N)ncnc54)[C@H](O)[C@@H]3O)[C@@H](O)[C@H]2O)C=CC1
Put plainly: purified protein. The settings on record: reductive reaction, 0.1 mM oxaloacetate, 100 mM potassium phosphate pH 6.5; pH 6.5. The format is biochemical, Synechocystis sp. PCC 6803.

`NC(=O)c1ccc[n+]([C@@H]2O[C@H](COP(=O)(O)OP(=O)(O)OC[C@H]3O[C@@H](n4cnc5c(N)ncnc54)[C@H](O)[C@@H]3O)[C@@H](O)[C@H]2O)c1` [NAD^+] showed a Ki at SyMDH [1] of 14.5 mM.

As for `O=C(O)/C=C/C(=O)O` [fumarate], the activity at 1000 µM on SyMDH [2] was ~170%.

B1: SyMDH (Synechocystis sp. PCC 6803 substr. Kazusa) (protein)
chain: MNILEYAPIACQSWQVTVVGAGNVGRTLAQRLVQQNVANVVLLDIVPGLPQGIALDLMAAQSVEEYDSKIIGTNEYEATAGSDVVVITAGLPRRPGMSRDDLLGKNANIVAQGAREALRYSPNAILIVVTNPLDVMTYLAWKVTGLPSQRVMGMAGVLDSARLKAFIAMKLGACPSDINTLVLGGHGDLMLPLPRYCTVSGVPITELIPPQTIEELVERTRNGGAEIAALLQTGTAYYAPASSAAVMVESILRNQSRILPAATYLDGAYGLKDIFLGVPCRLGCRGVEDILEVQLTPEEKAALHLSAEAVRLNIDVALAMVSDG
notes: full ORF in pGEX5X-1, N-terminal GST tag kept, E. coli expression, glutathione-Sepharose purification
For the molecule B1, the Km in “purified protein [3]” came to 2600 µM; in “purified protein [4]” it was 580 µM; in the series “purified protein [5]”, 12 µM; in “purified protein [6]” it was 30 µM. Further, the kcat turned out to be 0.43 s⁻¹ in the series “purified protein [3]”, 0.21 s⁻¹ in “purified protein [4]”, 0.71 s⁻¹ in the series “purified protein [5]” and 0.97 s⁻¹ in “purified protein [6]”.
